These results are taken from publication PMC5910400, “Genetically engineered two-warhead evasins provide a method to achieve precision targeting of disease-relevant chemokine subsets” (Scientific Reports, 2018).

Sequences and labels used below:
B2: CCL3 (ligand, human, UniProt P10147 24-92, looked up)
chain: SLAADTPTACCFSYTSRQIPQNFIADYFETSSQCSKPGVIFLTKRSRQVCADPSEEWVQKYVSDLELSA
notes: source: bought: Peprotech
B3: P1243 (evasin from Amblyomma americanum), purified, C-terminal StrepII:8xHis tag (natural protein)
chain: ETGRNHTEDNSTEYYDYEEARCACPARHLNNTNGTVLKLLGCHYFCNGTLCTAPDGYPCYNLTAQQVRTLTTYPNTSCAVGVCMKGTCVKNGTMEQCFKTP
B4: CCL3L1 (ligand, human, UniProt P16619 24-93, looked up)
chain: APLAADTPTACCFSYTSRQIPQNFIADYFETSSQCSKPSVIFLTKRGRQVCADPSEEWVQKYVSDLELSA
notes: source: bought: Peprotech
B5: CCL5 (ligand, human, UniProt P13501 24-91, looked up)
chain: SPYSSDTTPCCFAYIARPLPRAHIKEYFYTSGKCSNPAVVFVTRKNRQVCANPEKKWVREYINSLEMS
notes: source: bought: Peprotech

The target of experiment [1] is B3. In words: BLI; titration; evasin immobilised on the sensor through the C-terminal His tag; chemokine 300 nM to 0.4 nM (CXCL2: 600 nM to 1.2 nM), at least five concentrations; non-interacting reference protein; one-site binding fit or steady state analysis. Particulars: both partners purified. In general terms: Biolayer interferometry detects binding as a change in optical thickness at a sensor tip.

The target of the experiment “CCL3” is B2. In words: cell-based or functional assay.
The experiment “CCL5” has as its target B5. In words: cell-based or functional assay.
In the experiment “CCL3L1” the target is B4. In words: cell-based or functional assay.

B1: CCL1 (ligand, human, UniProt P22362 24-96, looked up)
chain: KSMQVPFSRCCFSFAEQEIPLRAILCYRNTSSICSNEGLIFKLKRGKEACALDTVGWVQRHRKMLRHCPSKRK
notes: source: bought: Peprotech
Consider B1, for which the binding result in experiment [1] is reported as “binds”.

Consider B2, for which the binding result in experiment [1] was “binds”.

With B3, the “mean IC50 (three biological replicates) of inhibition of THP-1 cell migration induced by the EC80 dose of CCL3” value in the experiment with CCL3 is 6.5e-09 M. For the same molecule, the “mean IC50 (three biological replicates) of inhibition of THP-1 cell migration induced by the EC80 dose of CCL5” value with CCL5 came to 8.9e-09 M. Also, in the experiment with CCL3L1, the “mean IC50 (three biological replicates) of inhibition of THP-1 cell migration induced by the EC80 dose of CCL3L1” value was determined as 1e-09 M.

For B4, the binding result in experiment [1] is listed as “binds”.

Regarding B5, in experiment [1], the binding result is recorded as “binds”.

B6: CCL22 (ligand, human, UniProt O00626 25-93, looked up)
chain: GPYGANMEDSVCCRDYVRYRLPLRVVKHFYWTSDSCPRPGVVLLTFRDKEICADPRVPWVKMILNKLSQ
notes: source: bought: Peprotech
For B6, the binding result in experiment [1] was “binds”.
